Values quoted from earlier work as cited in PMC12892997.

Key:
[1] = molecular target: SARS-CoV-2 spike protein RBD (Severe acute respiratory syndrome coronavirus 2) (UniProt P0DTC2)
[2] = molecular target: SARS-CoV-2 spike protein (Severe acute respiratory syndrome coronavirus 2) (UniProt P0DTC2)

Chain of GRP78 (P11021 19-654): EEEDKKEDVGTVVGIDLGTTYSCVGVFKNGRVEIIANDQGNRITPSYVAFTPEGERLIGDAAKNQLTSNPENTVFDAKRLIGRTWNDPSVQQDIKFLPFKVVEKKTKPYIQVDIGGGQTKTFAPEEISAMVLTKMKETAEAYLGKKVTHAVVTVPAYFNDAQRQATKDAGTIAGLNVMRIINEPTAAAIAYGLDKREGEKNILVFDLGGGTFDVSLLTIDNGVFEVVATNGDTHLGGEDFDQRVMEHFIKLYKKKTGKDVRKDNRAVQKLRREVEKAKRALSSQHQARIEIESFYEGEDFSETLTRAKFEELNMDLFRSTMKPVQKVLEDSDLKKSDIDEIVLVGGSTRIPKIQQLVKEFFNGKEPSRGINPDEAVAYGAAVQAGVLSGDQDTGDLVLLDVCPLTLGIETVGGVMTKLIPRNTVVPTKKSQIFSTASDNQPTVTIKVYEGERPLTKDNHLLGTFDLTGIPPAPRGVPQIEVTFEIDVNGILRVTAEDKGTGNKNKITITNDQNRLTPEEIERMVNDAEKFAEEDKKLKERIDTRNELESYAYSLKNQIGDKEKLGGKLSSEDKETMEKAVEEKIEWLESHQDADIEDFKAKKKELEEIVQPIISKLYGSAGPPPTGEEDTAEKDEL

Row | Substance | Kd [1] | Kd [2]
1 | CD4 N-terminal domain (from UniProt P01730) | 24.5 nM | –
2 | GRP78 (from UniProt P11021) | – | 55.2 nM
